# Earlier results in article PMC9315744.
# How the values were obtained:
# Experiment in all cases: MST
# [1] = target: MHV spike glycoprotein ECD (Murine hepatitis virus) (UniProt P11224)
# Nsp8 (SARS-CoV-2) = Nsp8 (SARS-CoV-2) (UniProt P0DTD1)
# [2] = target: Nsp7/Nsp8 complex (SARS-CoV-2) (UniProt P0DTD1)
# Sequence of MHV spike glycoprotein ECD (Murine hepatitis virus) (P11224 15-1231): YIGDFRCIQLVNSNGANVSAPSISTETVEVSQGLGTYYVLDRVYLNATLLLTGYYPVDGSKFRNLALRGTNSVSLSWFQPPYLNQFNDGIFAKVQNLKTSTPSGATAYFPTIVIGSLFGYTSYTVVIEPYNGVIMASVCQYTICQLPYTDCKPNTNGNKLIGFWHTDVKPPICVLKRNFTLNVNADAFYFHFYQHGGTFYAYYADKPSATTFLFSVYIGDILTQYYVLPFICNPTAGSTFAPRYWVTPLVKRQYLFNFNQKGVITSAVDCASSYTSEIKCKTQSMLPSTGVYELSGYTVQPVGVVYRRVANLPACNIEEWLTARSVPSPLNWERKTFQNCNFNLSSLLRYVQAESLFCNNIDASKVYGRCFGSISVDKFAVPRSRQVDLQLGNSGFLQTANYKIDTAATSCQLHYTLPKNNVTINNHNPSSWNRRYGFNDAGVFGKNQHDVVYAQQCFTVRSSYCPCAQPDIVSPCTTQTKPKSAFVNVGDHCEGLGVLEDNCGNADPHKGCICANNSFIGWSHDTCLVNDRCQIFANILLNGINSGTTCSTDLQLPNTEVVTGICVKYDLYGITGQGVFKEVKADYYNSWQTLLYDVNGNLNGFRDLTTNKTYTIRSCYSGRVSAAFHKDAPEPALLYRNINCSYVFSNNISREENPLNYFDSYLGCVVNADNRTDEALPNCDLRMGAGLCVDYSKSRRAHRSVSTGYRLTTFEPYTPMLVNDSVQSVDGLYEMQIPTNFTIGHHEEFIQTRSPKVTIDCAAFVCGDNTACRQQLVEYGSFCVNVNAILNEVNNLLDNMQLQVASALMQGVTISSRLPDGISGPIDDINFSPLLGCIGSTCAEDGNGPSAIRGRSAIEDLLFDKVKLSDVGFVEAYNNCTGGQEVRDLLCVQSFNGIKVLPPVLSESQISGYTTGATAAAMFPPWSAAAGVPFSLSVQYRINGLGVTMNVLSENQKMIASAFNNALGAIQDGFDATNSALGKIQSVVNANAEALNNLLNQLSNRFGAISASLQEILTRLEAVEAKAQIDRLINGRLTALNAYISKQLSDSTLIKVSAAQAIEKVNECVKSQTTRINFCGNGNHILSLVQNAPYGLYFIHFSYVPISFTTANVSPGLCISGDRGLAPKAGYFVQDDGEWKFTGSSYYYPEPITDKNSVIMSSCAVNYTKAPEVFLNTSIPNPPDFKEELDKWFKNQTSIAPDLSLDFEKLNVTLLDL
# Sequence of CEACAM1a (P31809 35-428): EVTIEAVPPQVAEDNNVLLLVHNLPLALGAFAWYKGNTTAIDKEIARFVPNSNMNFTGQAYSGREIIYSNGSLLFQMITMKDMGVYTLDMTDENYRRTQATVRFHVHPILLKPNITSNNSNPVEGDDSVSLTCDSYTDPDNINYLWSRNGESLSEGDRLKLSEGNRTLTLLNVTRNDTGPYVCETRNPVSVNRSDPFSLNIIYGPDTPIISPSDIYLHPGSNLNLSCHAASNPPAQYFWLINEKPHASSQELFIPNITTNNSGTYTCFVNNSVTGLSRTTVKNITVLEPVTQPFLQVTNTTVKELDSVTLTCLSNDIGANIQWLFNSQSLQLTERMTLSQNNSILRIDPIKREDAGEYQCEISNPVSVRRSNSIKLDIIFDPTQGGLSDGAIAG
Substance,Kd [1],Kd (Nsp8 (SARS-CoV-2)),Kd [2]
CEACAM1a (from UniProt P31809),48.5 nM,–,–
Nsp15 (from UniProt P0DTD1),–,16.3 µM,6.48 µM
